# Measurements taken from article PMC11602130 (Nucleic Acids Research, 2024).
# B1: His-STK19 (human STK19S, 254aa isoform) (natural protein, UniProt P49842 1-254, looked up)
# chain: MSWKRHHLIPETFGVKRRRKRGPVESDPLRGEPGSARAAVSELMQLFPRGLFEDALPPIVLRSQVYSLVPDRTVADRQLKELQEQGEIRIVQLGFDLDAHGIIFTEDYRTRVLKACDGRPYAGAVQKFLASVLPACGDLSFQQDQMTQTFGFRDSEITHLVNAGVLTVRDAGSWWLAVPGAGRFIKYFVKGRQAVLSMVRKAKYRELLLSELLGRRAPVVVRLGLTYHVHDLIGAQLVDCISTTSGTLLRLPET
# Target: CSA (human, untagged after removal of GST) (human, UniProt Q13216 1-396)
# Sequence (Q13216 whole entry): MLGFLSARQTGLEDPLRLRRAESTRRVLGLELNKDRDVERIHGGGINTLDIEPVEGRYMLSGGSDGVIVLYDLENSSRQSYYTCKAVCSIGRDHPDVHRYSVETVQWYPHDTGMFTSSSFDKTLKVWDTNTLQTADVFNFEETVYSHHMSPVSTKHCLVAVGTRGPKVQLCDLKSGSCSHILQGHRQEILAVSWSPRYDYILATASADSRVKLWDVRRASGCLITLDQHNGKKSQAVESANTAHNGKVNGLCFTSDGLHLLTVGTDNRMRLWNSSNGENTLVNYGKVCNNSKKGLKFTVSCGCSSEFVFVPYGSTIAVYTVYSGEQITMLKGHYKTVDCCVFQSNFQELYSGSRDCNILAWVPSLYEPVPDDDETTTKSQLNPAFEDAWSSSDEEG
# Test: pull-down
binder,measurement,value
B1,binding result,binds
